± gives the standard deviation of the averaged measurements.
B1: library; a variant is named by its letters at N, in order (parent)
chain: GCUGUCACCGAGAAACUGUGAAGUAUAUCUUAAACCUGGGCACUUAAAAGAUAUAUGGAGUUAGUAGUGCAACCUGCUCGGUCUGAUGAGUCCNNNNNNGGACGAAACAGC

Columns and labels:
[1] = variants of: B1; assay: FACS-Seq fitted mean relative fluorescence mCherry/BFP without ligand (log10 relative fluorescence); HEK293T; ligand: cyclic di-GMP (c-di-GMP-II aptamer); higher = higher reporter protein expression; conditions: ligand present: no
Procedure, shortened: (§1)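 Fluorescence figures are normalized fitted normal means of sequenced bin counts. Enriched, lentivirally transduced HEK293T libraries with a ribozyme-switch mCherry reporter and EF1α-BFP were held 48 h with or without ligand, then sorted into 6 mCherry/BFP bins. PCR-amplified, barcoded genomic DNA from each bin was sequenced on MiSeq. Means of log10(mCherry/BFP) were scaled to five spiked-in control ribozymes.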

[2] = variants of: B1; assay: normalized RNA/DNA level without ligand (relative to sTRSVctl = 100) (log10 (% of sTRSVctl)); HEK293T; ligand: cyclic di-GMP (c-di-GMP-II aptamer); higher = less ribozyme self-cleavage, higher mRNA level; conditions: reporter: mCherry (pCS4076), ligand present: no
Procedure, shortened: (§2)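 For each 6-well well, 4 µg of library plasmid encoding mCherry-linked ribozyme switches, or eGFP-linked ones in some ligand experiments, was transfected into HEK293T. Any ligand was added 1 h before transfection, and RNA was extracted with EDTA 72 h after it, then reverse-transcribed, amplified, barcoded and sequenced. RNA level was obtained by dividing RNA reads by DNA reads, normalizing to a spiked-in non-cleaving sequence or to the top sequences, then scaling and log-transforming. The top set was 25 sequences, scaling was ×100 with log10, and ≥100 DNA reads were required.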

[3] = variants of: B1; assay: FACS-Seq fitted mean relative fluorescence mCherry/BFP with ligand (log10 relative fluorescence); HEK293T; ligand: cyclic di-GMP (c-di-GMP-II aptamer); ligand concentration (+) FACS-Seq: 1 mM; higher = higher reporter protein expression; conditions: ligand present: yes
Procedure, shortened: as §1

[4] = variants of: B1; assay: normalized RNA/DNA level with ligand (relative to sTRSVctl = 100) (log10 (% of sTRSVctl)); HEK293T; ligand: cyclic di-GMP (c-di-GMP-II aptamer); ligand concentration (+) RNA-Seq: 1 mM; higher = less ribozyme self-cleavage, higher mRNA level; conditions: reporter: mCherry (pCS4076), ligand present: yes
Procedure, shortened: as §2

Variant	FACS-Seq fitted mean (log10) [1]	normalized RNA/DNA level without ligand (log10) [2]	FACS-Seq fitted mean (log10) [3]	normalized RNA/DNA level with ligand (log10) [4]
ACCUCC	0.0782 ± 0.15	1.78 ± 0.055	0.281 ± 0.037	1.86 ± 0.15
CACGUG	-0.341 ± 0.18	1.67 ± 0.019	-0.148 ± 0.21	1.84 ± 0.085
CGGGUA	-0.076 ± 0.13	1.67 ± 0.023	0.207 ± 0.099	1.75 ± 0.081
GUUAAU	-0.336 ± 0.014	1.62 ± 0.041	-0.0912 ± 0.025	1.77 ± 0.067
UAAAUG	0.102 ± 0.084	1.62 ± 0.0043	0.384 ± 0.037	1.83 ± 0.12
UAAAUA	-0.362 ± 0.037	1.654 ± 0.0031	-0.139 ± 0.088	1.78 ± 0.059
UAGGGA	-0.172 ± 0.12	1.53 ± 0.039	-0.000875 ± 0.13	1.68 ± 0.14
CCCUCC	-0.844 ± 0.018	1.78 ± 0.029	-0.75619 ± 0.00069	1.89 ± 0.045
CCCUCA	-0.416 ± 0.038	1.58 ± 0.039	-0.195 ± 0.06	1.73 ± 0.17
GGGGAC	0.068 ± 0.1	1.65 ± 0.027	0.307 ± 0.041	1.8 ± 0.17
AUAUAG	-0.0556 ± 0.15	1.61 ± 0.046	0.255 ± 0.02	1.74 ± 0.074
GUAUUU	-0.574 ± 0.0067	1.686 ± 0.0056	-0.186 ± 0.035	1.82 ± 0.085
UAGAAU	-0.456 ± 0.092	1.56 ± 0.036	-0.193 ± 0.12	1.75 ± 0.13
CGCAUA	-0.777 ± 0.12	1.29 ± 0.082	-0.5758 ± 0.0012	1.52 ± 0.17
GAUGUA	-0.456 ± 0.056	1.662 ± 0.0051	-0.166 ± 0.016	1.77 ± 0.11
CCCCAU	-0.0362 ± 0.2	1.68 ± 0.022	0.163 ± 0.051	1.83 ± 0.11
GCACUC	-0.286 ± 0.015	1.5 ± 0.056	0.125 ± 0.0091	1.69 ± 0.17
GACUUU	-0.222 ± 0.11	1.723 ± 0.0052	0.162 ± 0.028	1.85 ± 0.083

Variant	FACS-Seq fitted mean (log10) [1]	normalized RNA/DNA level without ligand (log10) [2]	FACS-Seq fitted mean (log10) [3]	normalized RNA/DNA level with ligand (log10) [4]
CACUUA	-0.231 ± 0.015	1.43 ± 0.04	-0.0377 ± 0.081	1.59 ± 0.11
ACCAAC	-0.0269 ± 0.12	1.6 ± 0.048	0.111 ± 0.07	1.76 ± 0.085
GAAAGA	-0.392 ± 0.037	1.41 ± 0.11	-0.0161 ± 0.058	1.57 ± 0.11
UAAGGA	-0.894 ± 0.046	1.54 ± 0.1	-0.73 ± 0.051	1.7 ± 0.066
AUUCGC	-0.123 ± 0.015	1.7768 ± 0.00017	0.194 ± 0.063	1.91 ± 0.11
AUAGAC	-0.109 ± 0.028	1.61 ± 0.05	0.0802 ± 0.041	1.76 ± 0.091
ACUUUU	-0.0638 ± 0.052	1.6 ± 0.053	0.272 ± 0.091	1.8 ± 0.095
AAACAC	-0.457 ± 0.011	1.6 ± 0.035	-0.124 ± 0.07	1.75 ± 0.082
CCCGUC	-0.648 ± 0.28	1.73 ± 0.061	-0.317 ± 0.1	1.87 ± 0.16
CAAUCU	-1.02 ± 0.16	1.54 ± 0.069	-0.88 ± 0.038	1.71 ± 0.13
ACGUAU	-0.637 ± 0.067	1.34 ± 0.1	-0.336 ± 0.0036	1.54 ± 0.036
AAGCGA	-0.459 ± 0.0051	1.44 ± 0.1	-0.202 ± 0.029	1.65 ± 0.13
CCAAAC	-0.366 ± 0.047	1.6 ± 0.019	-0.0651 ± 0.082	1.75 ± 0.14
UGGAAU	-0.121 ± 0.12	1.57 ± 0.041	0.272 ± 0.075	1.77 ± 0.13
UGGUCG	-0.511 ± 0.12	1.77 ± 0.034	-0.326 ± 0.0047	1.89 ± 0.045
UAUGUA	-0.622 ± 0.023	1.668 ± 0.0069	-0.405 ± 0.035	1.84 ± 0.08
GAUUGG	-0.22 ± 0.02	1.63 ± 0.02	0.0818 ± 0.059	1.75 ± 0.093
